{"source": "paper PMC4034690", "key": {"[1]": {"biological_target": "γ-tubulin small complex (γ-TuSC) [S. cerevisiae]", "experiment": "GST pull-down, immunoblot anti-His (bound Spc97, Spc98), Li-cor quantification", "settings": "300 nM Spc110 1-220; read off a plot"}, "[2]": {"biological_target": "γ-tubulin small complex (γ-TuSC) [S. cerevisiae]", "experiment": "GST pull-down, immunoblot anti-Tub4 (bound Tub4), Li-cor quantification", "settings": "300 nM Spc110 1-220; read off a plot"}, "[3]": {"biological_target": "γ-TuSC^Spc98Δ1–156, P53378;P38863;P53540", "experiment": "GST pull-down, immunoblot anti-His (bound Spc97/Spc98), Li-cor quantification", "settings": "300 nM Spc110 1-220; parent: est. 6; read off a plot; scale: %"}, "[4]": {"biological_target": "γ-tubulin small complex (γ-TuSC), P53378;P38863;P53540", "experiment": "GST pull-down, immunoblot anti-His (bound Spc97/Spc98), Li-cor quantification", "settings": "300 nM Spc110 1-220; read off a plot"}, "[5]": {"biological_target": "γ-TuSC^Spc98Δ1–156, P53378;P38863;P53540", "experiment": "GST pull-down, immunoblot anti-Tub4 (bound Tub4), Li-cor quantification", "settings": "300 nM Spc110 1-220; parent: est. 42; read off a plot; scale: %"}, "[6]": {"biological_target": "γ-tubulin small complex (γ-TuSC), P53378;P38863;P53540", "experiment": "GST pull-down, immunoblot anti-Tub4 (bound Tub4), Li-cor quantification", "settings": "300 nM Spc110 1-220; read off a plot"}, "[7]": {"biological_target": "γ-TuSC^Spc98Δ1–156 [S. cerevisiae]", "experiment": "GST pull-down, immunoblot anti-His (bound Spc97/Spc98), Li-cor quantification", "settings": "300 nM Spc110 1-220; read off a plot; scale: %"}, "[8]": {"biological_target": "γ-TuSC^Spc98Δ1–156 [S. cerevisiae]", "experiment": "GST pull-down, immunoblot anti-Tub4 (bound Tub4), Li-cor quantification", "settings": "300 nM Spc110 1-220; read off a plot; scale: %"}, "[9]": {"biological_target": "GST-Spc110^1–220-2D (S. cerevisiae) (UniProt P32380)"}, "[10]": {"biological_target": "GST-Spc110^1–220-5D (S. cerevisiae) (UniProt P32380)"}, "[11]": {"biological_target": "GST-Spc110^1–220-3D (S. cerevisiae) (UniProt P32380)"}, "[12]": {"biological_target": "γ-tubulin small complex (γ-TuSC) (S. cerevisiae) (UniProt P53378)", "experiment": "SEC; as a3 (TB150, Superose 6 10/300) but with the concentrations of γ-TuSC and Spc110^1–220 variants doubled (Figure 2—figure supplement 2A)"}, "[13]": {"biological_target": "γ-tubulin small complex (γ-TuSC) (S. cerevisiae) (UniProt P53378)", "experiment": "SEC; γ-TuSC mixed with GST-Spc110^1–220 variant in 1:4 molar ratio (2.3:9.3) in TB150 buffer, 1 hr at 4°C, Superdex 200 10/300 or Superose 6 10/300; shift of γ-TuSC to the void volume; fractions by SDS-PAGE and silver staining; void-volume fraction also by negative-stain electron microscopy"}}}
{"substance": "GST-Spc110^1–220 (wild type, from E. coli, non-phosphorylated) mutant S36D; S60D; T64D; T68D; S91D [S. cerevisiae] / γ-tubulin small complex (γ-TuSC) [S. cerevisiae] chain 1 S36D, chain 1 S60D, chain 1 T64D, chain 1 T68D, chain 1 S91D", "values": [{"measurement": "response", "setting": "[1]", "value": 8300, "unit": "RU"}, {"measurement": "response", "setting": "[2]", "value": 11000, "unit": "RU"}]}
{"substance": "GST-Spc110^1–220 (wild type, from E. coli, non-phosphorylated) mutant S36D; S91D [S. cerevisiae] / γ-tubulin small complex (γ-TuSC) [S. cerevisiae] chain 1 S36D, chain 1 S91D", "values": [{"measurement": "response", "setting": "[1]", "value": 3300, "unit": "RU"}, {"measurement": "response", "setting": "[2]", "value": 3300, "unit": "RU"}]}
{"substance": "GST-Spc110^1–220 (wild type, from E. coli, non-phosphorylated) mutant S60D; T64D; T68D [S. cerevisiae] / γ-tubulin small complex (γ-TuSC) [S. cerevisiae] chain 1 S60D, chain 1 T64D, chain 1 T68D", "values": [{"measurement": "response", "setting": "[1]", "value": 7400, "unit": "RU"}, {"measurement": "response", "setting": "[2]", "value": 10000, "unit": "RU"}]}
{"substance": "GST-Spc110^1–220-5D (from UniProt P32380) T18D; CM1-QA", "values": [{"measurement": "response", "setting": "[3]", "value": 9}, {"measurement": "percent of parent", "setting": "[4]", "value": 16, "unit": "%"}, {"measurement": "response", "setting": "[5]", "value": 32}, {"measurement": "percent of parent", "setting": "[6]", "value": 40, "unit": "%"}]}
{"substance": "GST-Spc110^1–220-5D (from UniProt P32380) CM1-QA", "values": [{"measurement": "response", "setting": "[3]", "value": 3}, {"measurement": "percent of parent", "setting": "[4]", "value": 45, "unit": "%"}, {"measurement": "response", "setting": "[5]", "value": 34}, {"measurement": "percent of parent", "setting": "[6]", "value": 49, "unit": "%"}]}
{"substance": "GST-Spc110^1–220 (wild type, from E. coli, non-phosphorylated) mutant S36D; S60D; T64D; T68D; S91D [S. cerevisiae] / γ-TuSC^Spc98Δ1–156 [S. cerevisiae] chain 1 S36D, chain 1 S60D, chain 1 T64D, chain 1 T68D, chain 1 S91D", "values": [{"measurement": "response", "setting": "[7]", "value": 6}, {"measurement": "response", "setting": "[8]", "value": 42}]}
{"substance": "γ-tubulin small complex (γ-TuSC), P53378 1-473; P38863 1-823; P53540 1-846", "values": [{"measurement": "in vitro MT nucleation activity (MTs/field normalised to buffer only); 3 μM γ-TuSC pre-incubated with 15 μM GST-Spc110^1–220 variant; compared to the buffer control and γ-TuSC alone", "setting": "[9]", "value": 3, "unit": "fold"}, {"measurement": "in vitro MT nucleation activity (MTs/field normalised to buffer only); 3 μM γ-TuSC pre-incubated with 15 μM GST-Spc110^1–220 variant; compared to the buffer control and γ-TuSC alone", "setting": "[10]", "value": 3, "unit": "fold"}, {"measurement": "in vitro MT nucleation activity (MTs/field normalised to buffer only); 3 μM γ-TuSC pre-incubated with 15 μM GST-Spc110^1–220 variant; compared to the buffer control and γ-TuSC alone", "setting": "[11]", "value": 3, "unit": "fold"}, {"measurement": "stoichiometry N", "setting": "[12]", "value": 2}, {"measurement": "stoichiometry N", "setting": "[13]", "value": "> 14"}]}
